Literature values, collected in paper PMC6811625.
pKd: −log10 of the molar value.

Target: Im7 (Escherichia coli) (UniProt Q03708)
Sequence (Q03708 whole entry): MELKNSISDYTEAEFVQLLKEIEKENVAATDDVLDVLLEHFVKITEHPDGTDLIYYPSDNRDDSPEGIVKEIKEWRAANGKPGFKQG

Sequence of Spy (P77754 24-161): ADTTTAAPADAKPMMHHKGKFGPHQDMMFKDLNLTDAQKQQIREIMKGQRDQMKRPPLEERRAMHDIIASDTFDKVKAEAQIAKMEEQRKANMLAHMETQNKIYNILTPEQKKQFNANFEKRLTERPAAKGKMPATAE

In the case of Spy (from UniProt P77754), the pKd is given as 4.52.
